Molecular target: CISNN116 (NT1-C3-hIL21) (UniProt Q9HBE4)
Sequence (Q9HBE4 other isoform, or with tags, fused parts or gaps): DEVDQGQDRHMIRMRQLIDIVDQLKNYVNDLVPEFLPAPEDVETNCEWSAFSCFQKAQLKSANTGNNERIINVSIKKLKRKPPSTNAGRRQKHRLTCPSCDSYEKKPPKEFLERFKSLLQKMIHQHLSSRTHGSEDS

Caspase 3
completion of the proteolysis reaction (Maldi analysis), 1 hour at 37° C.: Maldi analysis showed 87% completion of the reaction

From patent US20070141662
